The values below come from a protein production outcome set (Wang et al. 2014).
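Note: failed if final PepcDB status was selected cloned or expressed and not failed if soluble or beyond.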

This data set can be described thus: label from the status in PepcDB records.
“MVRKALLFVIDVALTYFAGVVALFSRFGFDFQEMSRYDESVIVYTVISAVVYILNGNYSIVWEYANARDFLILIRGSVISYLSNLAFFYVYRGIVLPRSVGFAVFLGSMVLLVLSRITWQWMIVNGRGKVPGEKRILIIGAGDAGVSILEEFEKHPHLGKIVAFVDDSPRKIGRKVRGVPVFGPIEKTMEFVEKMNVDEIVIAIPSASRAEMERILKSIDLKKVRVKTLPSVRELIEGRVRISHLKEISIEDLLGREEVKVDFHEIGKFLKGKKILVTGAGGSIGSELCKQIARMNPAEIFLLGHGETSIYLINEFLTEHFPEVKKKRIIADVADRKIMEHWLTQLRPDVIFHVAAHKHVPLMEENPLEAFRVNVLGTMNLVELSERLGVKYFVFISTDKAVNPTSVMGLTKRIAELYILSREKNSTNFSIVRFGNVLGSRGSVVEKFRRQIEKGGPVTVTDPRMKRYFMSIPEAVSLILQSLLFSSGKDLFILDMGEQIPILKLAETMIMLSGYTPYQDIKIVFTGIRPGEKMYEELLYPYEVKELTPHSKIFRVKTSVLPGKESVEQAINRMKEAFENSDVKGLLTEMKKLVPEAQINVGSDN”: the protein production entry is reported as “failed”.

As for “QSVHDIEKTLIRIGVVQWQMRAMNDLEDLLDQAEFFISSLANYKADFALFPEFFNAPLMGLQNDQNSVEAIRFLASFTEEIKNRFSQMAVTYNINIIAGSMPLIEDGKLYNVAYLLQRDGEINAQYKIHITPHEQKDWVIDGGDNVQVFETDAGKVGILICYDSEFPELGRMLAEQGAQIIFVPFWTDTKNGYQRVRICSQSRAIENECYVAIGGSVGNLPRVDNVDIQYAQSAVFSPSDIYFPHDATLTEASANTEMIIFADVDLTKLKQLNTEGSVTNLRHRRLDLYGAFTTPKE”, the protein production entry is recorded as “failed”.

“MLKYQQIATEIETYIEEHQLQQGDKLPVLETLMAQFEVSKSTITKSLELLEQKGAIFQVRGSGIFVRKHKRKGYISLLSNQGFKKDLEDFNVTSKVIELDVRKPTPEAAENLNIGMDEDIYYVKRVRYINGQTLCYEESYYTKSIVTYLNNEIVSHSIFHYIREGLGLKIGFSDLFLHVGQLNEEEAEYLGLEAGLPKLYIESIFHLTNGQPFDYSKISYNYEQSQFVVQANSFLL”: the protein production entry was “not failed”.

“MDTMSQILKLLEKTDSIEINEFRMDVDELELTIMPTLQNVVQKVVEKQIEAKKEFESQIEFKYPVKDYAGKVNEVKLGGKNRKTVKLGGQTSLYRFEEPQPNAPTVTFDVFDIPMNGLPRPIKENFEDVMHSPGEWAQKAVKEFGADMITLHLIGTDPKVKDKSLKDAAKDLEEVLQAVKVPLVIGGSGNPKKDPLVLEMAAEVADGERCLLASANLDLDYQKIAQAAVKHDHAVLSWAISDINMQKVLNKALMKEGLTANDIVMDPTTCALGYGIEFSIDVMTRTRLSALKGDEILQMPMSSGTTNAWGSREAWMKKDEWGPTKYRGPIWEVVTGLTMMLCGVDIFMMLHPLSVKTLKEIGTTLTYEYKSKESQDISDWINKF”: the protein production entry is recorded as “not failed”.

Consider “MFPFGPHSPGGDETAGAEEPPPLGGPAAASRPPSPAPRPASPQRGADAASPPPVAGSPRLPGGPAVSPAERAGEFAAPGALELSAATASASQAKLSPSSSPRRRSRPDWRAGGRSRQGLGAGLGGPGARLFGWLRERSLGRGLFVDPARDNFRTMTNLYGSIHPADSVYLSTRTHGAVFNLEYSPDGSVLTVACEQTEVLLFDPISSKHIKTLSEAHEDCVNNIRFLDNRLFATCSDDTTIALWDLRKLNTKVCTLHGHTSWVKNIEYDTNTRLLVTSGFDGNVIIWDTNRCTEDGCPHKKFFHTRFLMRMRLTPDCSKMLISTSSGYLLILHELDLTKSLEVGSYPILRARRTTSSSDLTTTSSSSGSRVSGSPCHHNDSNSTEKHMSRASQREGVSPRNSLEVLTPEVPGERDRGNCITSLQLHPKGWATLLRCSSNTDDQEWTCVYEFQEGAPVRPVSPRCSLRLTHYIEEANVGRGYIKELCFSPDGRMISSPHGYGIRLLGFDKQCSELVDCLPKEASPLRVIRSLYSHNDVVLTTKFSPTHCQIASGCLSGRVSLYQPKF”, for which the protein production entry is “failed”.

For the sequence “PLLDSFKVDHTKMNAPAVRIAKTMLTPKGDNITVFDLRFCIPNKEILSPKGIHTLEHLFAGFMRDHLNGDSIEIIDISPMGCRTGFYMSLIGTPNEQKVSEAWLASMQDVLGVQDQASIPELNIYQCGSYTEHSLEDAHEIAKNVIARGIGVNKNEDLSLDNSLLK”, the protein production entry was “not failed”.

In the case of “MAVKIQTPAGTIEITNDVIATVVGGAATDIYGIVGMASKNQIKDNLNDILRRENYSRGVVVRQEDNGIAVDVYTIVSYGTKISEVSRNVQEKVKYNLETLLGVTANSVNVFVQGVRVLPDLEHHHHHH”, the protein production result was “not failed”.

On to “KQLGPHTYLVSGRMEIDDVNERFGLSLPESDDYLTVAGFILNSHQNIPQANEVVEIAPYTFTILRSSSTKIELVKMSIDD”, for which the protein production result is “not failed”.

Take “MKLLLTRPEGKNAAMASALDALAIPYLVEPLLSVEAAAVTQAQLDELSRADILIFISTSAVSFATPWLKDQWPKATYYAVGDATADALALQGITAERSPADSQATEGLLTLPSLEQVSGKQIVIVRGKGGREAMADGLRLRGANVSYLEVYQRACPPLDAPASVSRWQSFGIDTIVVTSGEVLENLINLVPKDSFAWLRDCHIIVPSARVETQARKKGLRRVTNAGAANQAAVLDALGM”: the protein production entry was “not failed”.

As to “MKILSIHDLQIIRKRAEHHLSLREESNEKVSEKCCGLASGTTHLQILICGGTGCKASSSQGITENLQKAIERNGITDKVDVITVGCFGFCEKGPIVKIIPDNTFYTQVTPEDAEEIISEHIIGGRRIERLLYIDPKTEQTVSDSKHMDFYRKQLRIALRNCGFIDSENIEEYIAREGYFALADCLLNKQPADVIDIIKRSGLRGRGGGGFPTGLKWEFASKQVSNVKYVVCNADEGDPGAFMDRSIMEGDPHSIVEAMCICGYSIGSSKGLVYIRAEYPLAINRLKKAIEQAREYGLLGDHILGTDFSFDIEIRYGAGAFVCGEETALIHSMEGKRGEPTLKPPFPAESGYLGKPTNVNNVETLANIPIILTKGAEWFASIGTERSKGTKVFALAGKINNVGLIEVPMGTTLREVIYEIGGGIKGGKKFKAVQTGGPSGGCLTEKHLDTPIDFDNLLAAGSMMGSGGMIVMDEDDCMVSVARFYLDFTVEESCGKCTPCRIGNKRLLELLNKITEGRGTEKDLDTLATLGRVIKDTALCGLGQTSPNPVLSTLDNFRDEYLEHVRDKTCRAKQCKSLLTYTINPELCIGCHLCAKNCPADAISGLVRKPHVIHPEKCIKCGMCMARCKFKAILVC”, the protein production result is listed as “failed”.

“MRYLVWALRLLVFVAVLMFALKNTNPVAVTFYADYVVHDVPLIVVMLVVFVVGALFGLLLTVPAAMRRRREALRLRREVERLQAAASGTPPVVTPEAVAPMSPL”: the protein production result was “failed”.

Regarding “MTADRPLLGIFLMLGFCVLAPMGDALAKLLGGTMPTMQLLLVRFAIQAVILIPLVQATGRPWQLRGRLLRLTALRTLLHIVGIWAMFTALRYLPLADAIAIAFVMPFIMLLLGKYVLGEEVGPRRLGACIVGFAGTLLVIQPSFAEVGLPALLPLLVAVVFALFMLVTRQLAKDTDPIALQAVSGVMACVALTPVLLIGHAAGVEALTLVTASGTTLWLLLAIGVLGTAAHLLMTWSLRYAPSATLAPMQYLEIPVATAIGWLIFHDLPNGLAALGILITMAAGLYVILREQATARSAATETSG”, the protein production entry was “failed”.

For the sequence “MDLSVVVPTLNARDALLDALDALAAHAPAAEVVVANGPSVDGTSGTVRDHDAVDTLLELSERNLNAARNAGIAATNGTVVAFIGQDTHIQPGWTNAVADAIADGADAVTGPVHRTVEGGVTTESVDEATVSGRDVTFFDGANVAITRRALRALDGFDEALQTGAARDAAHRLAGMDRRVAWAPNACVLRTDADDVIHRLPEDADSSARGLKYRALAYRLTKNYGATAAITARVLRHAVGDAASVGGAVLRGDADLSTWVGAGLAVLPGLWRGSQAGLSARVADRTTTRNPNGVSTRMDRVHARHD”, the protein production entry is reported as “failed”.

Turning to “DASRQAELVREGITSSSDLVEQSLNKIEKGNSQLNAVTYLRADRALEEAKQINDHGQPFFGVPILLKGLGQKLAGEPATASSRLLKKLVADQTDFYVQALQKAGFIVIGQTNAPEFGFKNITDPTLYGPTRNPWNLDYYSGGSSGGAASSMAADFVSIASGSDGGGSIRIPASFSSLIGLKPTRGRIPVGPTDWRTWQGASISFALTRSVRDNARLLDAIQTVQPAAAFTTPLYEAGFFAGIDQLDRNLTIAYTTKSPVGTEVRDEAKTAVENAVDFLRSEGFQVEEQENPLDGKEIMQLYYLMNAGETAAMFADIEEGIGRPTNIQDMELMSWVIYQAGKLVTAGEYSQALSKWDISSYQMNQFHENYDLYLTPTTAYPAPKLTDELISPELLGRMKEVTSLTSSFERQQLIYDAFLPSLALTPFTQQANLTGEPAISLPTHLTAAGLPLGIQFQAAKGREIDLLRIARLFEKHNLFHFLHKTIF”, the protein production result is “failed”.

As to “VTATQLAAKATTLYYLHKQAMTDEVSLLLEQALQLEPYNEAALSLIANDHFISFRFQEAIDTWVLLLDSNDPNLDRVTIIESINKAKKLM”, the protein production entry is “not failed”.

Turning to “METTHYSIAQHFSSGDFPAVYACFNDIIEWNIIGNQVVKGKADVIDFCNKMLPEMKGAVLTNDNVIQNENQIVIEGKCRYFDAEGKEAFVSYCDIYRFENDTIKTITSYCI”, the protein production result is “not failed”.

In the case of “MDQFPESVTENFEYDDLAEACYIGDIVVFGTVFLSIFYSVIFAIGLVGNLLVVFALTNSKKPKSVTDIYLLNLALSDLLFVATLPFWTHYLINEKGLHNAMCKFTTAFFFIGFFGSIFFITVISIDRYLAIVLAANSMNNRTVQHGVTISLGVWAAAILVAAPQFMFTKQKENECLGDYPEVLQEIWPVLRNVETNFLGFLLPLLIMSYCYFRIIQTLFSCKNHKKAKAIKLILLVVIVFFLFWTPYNVMIFLETLKLYDFFPSCDMRKDLRLALSVTETVAFSHCCLNPLIYAFAGEKFRRYLYHLYGKCLAVLCGRSVHVDFSSSESQRSRHGSVLSSNFTYHTSDGDALLLL”, the protein production result was “failed”.

For “MRAFLRVVETGNFTRASASLNMPKATVTNLIQGLEAHLRTKLLNRTTRRVLVTPDGALYYERAARLLSDLDELDGSLSTAQSLPKGRLRVETASAFANLVIIPALPEFHKKYPDIQIDLGVSDRTIDYLAENVDCAIRAGTLTDQSLIARRITEMKFVACASRDFLERHPVPQHPSDLEKNCYVVGYFLPKTGQQMPFHFRRGNEEIEVSGRYTVAANESTTYLAAARAGLGVIQAPLFMVREDLRNGTMVPVLPDWQVEPMPIYLVYPPNRHLSSRLRVFADWVVKVMAQSQNGE”, the protein production result is listed as “not failed”.

For “MKKIVILIISVLLLGGIIGGVYYFKNANKIGADASYVKITKDPTKSNEISFNNNYTLPAYDENGKETEVTFSADKELRKGAYLKLYIKEDKGVTSFEEVPEKEVPAKAAEKLKLEHHHHHH”, the protein production entry is recorded as “failed”.

Take “MDMKKHGLSIGINRIESVFFVTLKAIGTLTHEDYLVITPMLEGALSQVDQPKVSLFLDATELDGWDLRAAWDDLKLGLKHKSEFERVAILGNKDWQEWAAKIGSWFIAGEIKYFEDEDDALKWLRY”: the protein production entry is given as “not failed”.

On to “MIFMQTSSYHSVTSVIFDKNTQNHTSIAIWLLICCALVFAMVVVGGVTRLTGSGLSIVEWKPIVGTIPPISQGDWEILLEKYRQIPQYEQINKGMTLDEFKGIFWWEYFHRLLGRLIGLVYFVPFVYFMVRKRVDRVLGTKLLGIFVLGGLQGLMGWYMVMSGLADNVYVSQYRLTAHLGLAFIIYAAMFWVATGLLSPVNTHSADPASVRKLGRFARILTGLIFFMVLSGGLVAGIHAGKAYNTFPLMDGFFIPPALFVLEPWYRNFFDNITTVQFDHRMIAWLLMFTIPLFWFKARQLSLSWSGRLACHLLLIMLCTQVALGITTLLLSVPLTFAAAHQAGAVLLFTAALWVCRKLS”, for which the protein production result is on record as “failed”.
